The supplement of paper PMC9112550, “Optimization of the antimicrobial peptide Bac7 by deep mutational scanning” (BMC Biology, 2022)

System: Escherichia coli TOP10
Test: shrunken log2 fold change of peptide-encoding DNA abundance (4.5 h post-induction vs induction); higher = less antimicrobial activity (less host growth inhibition)
Conditions: time post-induction: 4.5 h; library: site-saturation at positions 5, 18, 19, 20
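Note: peptides expressed intracellularly from a pBAD plasmid library in pooled LB shake-flask culture, induced with 0.3% L-arabinose, DNA abundance read by NGS, three biological replicates, DESeq2 with apeglm shrinkage.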

Sequence: RRIRFRPPRLPRPRPRPYLDPRP
- shrunken log2 fold change: -0.26

Sequence: RRIRQRPPRLPRPRPRPTPFPRP
- shrunken log2 fold change: 0.296

Sequence: RRIRWRPPRLPRPRPRPNQIPRP
- shrunken log2 fold change: -0.189

Sequence: RRIRQRPPRLPRPRPRPESKPRP
- shrunken log2 fold change: 0.0494

Sequence: RRIRGRPPRLPRPRPRPTECPRP
- shrunken log2 fold change: 0.267

Sequence: RRIRARPPRLPRPRPRPDRRPRP
- shrunken log2 fold change: 0.086

Sequence: RRIRVRPPRLPRPRPRPCWFPRP
- shrunken log2 fold change: -0.106

Sequence: RRIRSRPPRLPRPRPRPYMPPRP
- shrunken log2 fold change: -1.04

Sequence: RRIRNRPPRLPRPRPRPLKHPRP
- shrunken log2 fold change: -0.239

Sequence: RRIRIRPPRLPRPRPRPSLGPRP
- shrunken log2 fold change: -0.245

Sequence: RRIRTRPPRLPRPRPRPFNIPRP
- shrunken log2 fold change: -0.333

Sequence: RRIRPRPPRLPRPRPRPLQIPRP
- shrunken log2 fold change: -0.161

Sequence: RRIRERPPRLPRPRPRPIYEPRP
- shrunken log2 fold change: -0.236

Sequence: RRIRNRPPRLPRPRPRPVSWPRP
- shrunken log2 fold change: 0.162

Sequence: RRIRLRPPRLPRPRPRPTNSPRP
- shrunken log2 fold change: -0.355

Sequence: RRIRDRPPRLPRPRPRPDQKPRP
- shrunken log2 fold change: -0.0052

Sequence: RRIRPRPPRLPRPRPRPGENPRP
- shrunken log2 fold change: 0.184

Sequence: RRIRFRPPRLPRPRPRPLGNPRP
- shrunken log2 fold change: -0.215

Sequence: RRIRLRPPRLPRPRPRPFPEPRP
- shrunken log2 fold change: -0.0878

Sequence: RRIRGRPPRLPRPRPRPCDPPRP
- shrunken log2 fold change: 0.228

Sequence: RRIRGRPPRLPRPRPRPINQPRP
- shrunken log2 fold change: -0.0767

Sequence: RRIRRRPPRLPRPRPRPRKNPRP
- shrunken log2 fold change: 0.179

Sequence: RRIRKRPPRLPRPRPRPMDCPRP
- shrunken log2 fold change: 0.0101

Sequence: RRIRNRPPRLPRPRPRPNGSPRP
- shrunken log2 fold change: -0.0999

Sequence: RRIRNRPPRLPRPRPRPMMGPRP
- shrunken log2 fold change: 0.0355

Sequence: RRIRCRPPRLPRPRPRPFDYPRP
- shrunken log2 fold change: 0.0472

Sequence: RRIRRRPPRLPRPRPRPYGPPRP
- shrunken log2 fold change: -0.64

Sequence: RRIRLRPPRLPRPRPRPWFCPRP
- shrunken log2 fold change: -0.195

Sequence: RRIRIRPPRLPRPRPRPMTPPRP
- shrunken log2 fold change: 0.0425

Sequence: RRIRTRPPRLPRPRPRPGHRPRP
- shrunken log2 fold change: -0.216

Sequence: RRIRFRPPRLPRPRPRPTDNPRP
- shrunken log2 fold change: -0.205

Sequence: RRIRRRPPRLPRPRPRPLPCPRP
- shrunken log2 fold change: -0.0345

Sequence: RRIRARPPRLPRPRPRPLRCPRP
- shrunken log2 fold change: 0.242

Sequence: RRIRPRPPRLPRPRPRPMMFPRP
- shrunken log2 fold change: -0.213

Sequence: RRIRARPPRLPRPRPRPLSKPRP
- shrunken log2 fold change: -0.0286

Sequence: RRIRDRPPRLPRPRPRPMGQPRP
- shrunken log2 fold change: 0.0515

Sequence: RRIRTRPPRLPRPRPRPLKKPRP
- shrunken log2 fold change: -0.0468

Sequence: RRIRCRPPRLPRPRPRPSEYPRP
- shrunken log2 fold change: -0.497

Sequence: RRIRDRPPRLPRPRPRPQAVPRP
- shrunken log2 fold change: 0.164

Sequence: RRIRMRPPRLPRPRPRPVVVPRP
- shrunken log2 fold change: -0.0177

Sequence: RRIRARPPRLPRPRPRPEAYPRP
- shrunken log2 fold change: 0.114

Sequence: RRIRVRPPRLPRPRPRPIKLPRP
- shrunken log2 fold change: -0.486

Sequence: RRIRYRPPRLPRPRPRPMWIPRP
- shrunken log2 fold change: -0.526

Sequence: RRIRVRPPRLPRPRPRPTTPPRP
- shrunken log2 fold change: 0.347

Sequence: RRIRIRPPRLPRPRPRPMGFPRP
- shrunken log2 fold change: 0.0523

Sequence: RRIRNRPPRLPRPRPRPCTAPRP
- shrunken log2 fold change: 0.022

Sequence: RRIRGRPPRLPRPRPRPVGKPRP
- shrunken log2 fold change: 0.646

Sequence: RRIRNRPPRLPRPRPRPALVPRP
- shrunken log2 fold change: 0.461

Sequence: RRIRHRPPRLPRPRPRPQKKPRP
- shrunken log2 fold change: -0.421

Sequence: RRIRNRPPRLPRPRPRPPFPPRP
- shrunken log2 fold change: 0.309

Sequence: RRIRCRPPRLPRPRPRPPKFPRP
- shrunken log2 fold change: -0.0746

Sequence: RRIRARPPRLPRPRPRPAVEPRP
- shrunken log2 fold change: 0.666

Sequence: RRIRRRPPRLPRPRPRPAIIPRP
- shrunken log2 fold change: -0.115

Sequence: RRIRVRPPRLPRPRPRPTPHPRP
- shrunken log2 fold change: 0.313

Sequence: RRIRMRPPRLPRPRPRPADWPRP
- shrunken log2 fold change: 0.905

Sequence: RRIRHRPPRLPRPRPRPFNTPRP
- shrunken log2 fold change: -1.18

Sequence: RRIRVRPPRLPRPRPRPRVIPRP
- shrunken log2 fold change: -0.0308

Sequence: RRIRPRPPRLPRPRPRPMRWPRP
- shrunken log2 fold change: 0.707

Sequence: RRIRQRPPRLPRPRPRPHWIPRP
- shrunken log2 fold change: -0.452

Sequence: RRIRWRPPRLPRPRPRPPNYPRP
- shrunken log2 fold change: -0.0821

Sequence: RRIRYRPPRLPRPRPRPVDPPRP
- shrunken log2 fold change: -0.0356

Sequence: RRIRTRPPRLPRPRPRPYVAPRP
- shrunken log2 fold change: -0.562

Sequence: RRIRCRPPRLPRPRPRPGGNPRP
- shrunken log2 fold change: -0.0575

Sequence: RRIRGRPPRLPRPRPRPGGRPRP
- shrunken log2 fold change: 1.09

Sequence: RRIRCRPPRLPRPRPRPMAPPRP
- shrunken log2 fold change: 0.219

Sequence: RRIRWRPPRLPRPRPRPCDKPRP
- shrunken log2 fold change: -0.217

Sequence: RRIRDRPPRLPRPRPRPCSKPRP
- shrunken log2 fold change: 0.0354

Sequence: RRIRPRPPRLPRPRPRPSRHPRP
- shrunken log2 fold change: -0.0917

Sequence: RRIRQRPPRLPRPRPRPHCNPRP
- shrunken log2 fold change: -0.11

Sequence: RRIRCRPPRLPRPRPRPVEAPRP
- shrunken log2 fold change: 0.338

Sequence: RRIRFRPPRLPRPRPRPMNNPRP
- shrunken log2 fold change: -0.501

Sequence: RRIRKRPPRLPRPRPRPIMPPRP
- shrunken log2 fold change: 0.099

Sequence: RRIRCRPPRLPRPRPRPSEVPRP
- shrunken log2 fold change: -0.328

Sequence: RRIRHRPPRLPRPRPRPSVTPRP
- shrunken log2 fold change: -0.453

Sequence: RRIRYRPPRLPRPRPRPKDVPRP
- shrunken log2 fold change: -0.0107

Sequence: RRIRGRPPRLPRPRPRPDTVPRP
- shrunken log2 fold change: -0.116

Sequence: RRIRRRPPRLPRPRPRPCPGPRP
- shrunken log2 fold change: -0.196

Sequence: RRIRTRPPRLPRPRPRPIANPRP
- shrunken log2 fold change: 0.207

Sequence: RRIRTRPPRLPRPRPRPELDPRP
- shrunken log2 fold change: 0.641

Sequence: RRIRCRPPRLPRPRPRPHAPPRP
- shrunken log2 fold change: 0.0482

Sequence: RRIRQRPPRLPRPRPRPKVQPRP
- shrunken log2 fold change: 0.0205

Sequence: RRIRNRPPRLPRPRPRPNIIPRP
- shrunken log2 fold change: -0.784

Sequence: RRIRWRPPRLPRPRPRPKTIPRP
- shrunken log2 fold change: 0.118

Sequence: RRIRCRPPRLPRPRPRPKYIPRP
- shrunken log2 fold change: -0.828

Sequence: RRIRLRPPRLPRPRPRPWFWPRP
- shrunken log2 fold change: -0.0455

Sequence: RRIRARPPRLPRPRPRPFQAPRP
- shrunken log2 fold change: 0.0111

Sequence: RRIRTRPPRLPRPRPRPRPNPRP
- shrunken log2 fold change: 0.267

Sequence: RRIRFRPPRLPRPRPRPPGIPRP
- shrunken log2 fold change: 0.151

Sequence: RRIRWRPPRLPRPRPRPVCIPRP
- shrunken log2 fold change: 0.12

Sequence: RRIRKRPPRLPRPRPRPTQGPRP
- shrunken log2 fold change: 0.909

Sequence: RRIRPRPPRLPRPRPRPIVGPRP
- shrunken log2 fold change: -0.00131

Sequence: RRIRLRPPRLPRPRPRPQKGPRP
- shrunken log2 fold change: -0.183

Sequence: RRIRDRPPRLPRPRPRPDYTPRP
- shrunken log2 fold change: -0.276

Sequence: RRIRFRPPRLPRPRPRPVGWPRP
- shrunken log2 fold change: 0.62

Sequence: RRIRKRPPRLPRPRPRPVRSPRP
- shrunken log2 fold change: 2.24

Sequence: RRIRMRPPRLPRPRPRPLSVPRP
- shrunken log2 fold change: 0.401

Sequence: RRIRGRPPRLPRPRPRPWNFPRP
- shrunken log2 fold change: -0.289

Sequence: RRIRNRPPRLPRPRPRPLWDPRP
- shrunken log2 fold change: -0.00945

Sequence: RRIRVRPPRLPRPRPRPAHTPRP
- shrunken log2 fold change: 0.109

Sequence: RRIRFRPPRLPRPRPRPPTHPRP
- shrunken log2 fold change: 0.22

Sequence: RRIRERPPRLPRPRPRPLDIPRP
- shrunken log2 fold change: -0.0284

Sequence: RRIRSRPPRLPRPRPRPAKYPRP
- shrunken log2 fold change: -0.215

Sequence: RRIRSRPPRLPRPRPRPNDNPRP
- shrunken log2 fold change: -0.57

Sequence: RRIRTRPPRLPRPRPRPQSNPRP
- shrunken log2 fold change: -0.581

Sequence: RRIRARPPRLPRPRPRPAERPRP
- shrunken log2 fold change: 0.301

Sequence: RRIRLRPPRLPRPRPRPTCPPRP
- shrunken log2 fold change: 0.0694

Sequence: RRIRHRPPRLPRPRPRPIMSPRP
- shrunken log2 fold change: -0.161

Sequence: RRIRCRPPRLPRPRPRPFANPRP
- shrunken log2 fold change: -0.29

Sequence: RRIRFRPPRLPRPRPRPVWYPRP
- shrunken log2 fold change: -0.308

Sequence: RRIRGRPPRLPRPRPRPGNGPRP
- shrunken log2 fold change: 0.434

Sequence: RRIRPRPPRLPRPRPRPQEAPRP
- shrunken log2 fold change: 0.0203

Sequence: RRIRWRPPRLPRPRPRPRHTPRP
- shrunken log2 fold change: -0.0876

Sequence: RRIRERPPRLPRPRPRPQHTPRP
- shrunken log2 fold change: -0.32

Sequence: RRIRNRPPRLPRPRPRPCCPPRP
- shrunken log2 fold change: -0.0502

Sequence: RRIRERPPRLPRPRPRPLGTPRP
- shrunken log2 fold change: -0.0681

Sequence: RRIRVRPPRLPRPRPRPKHNPRP
- shrunken log2 fold change: -0.292

Sequence: RRIRFRPPRLPRPRPRPLQAPRP
- shrunken log2 fold change: 0.285

Sequence: RRIRPRPPRLPRPRPRPMKNPRP
- shrunken log2 fold change: 0.212

Sequence: RRIRIRPPRLPRPRPRPETRPRP
- shrunken log2 fold change: -0.0624

Sequence: RRIRARPPRLPRPRPRPHCVPRP
- shrunken log2 fold change: 0.0669

Sequence: RRIRLRPPRLPRPRPRPHRDPRP
- shrunken log2 fold change: -0.0661

Sequence: RRIRHRPPRLPRPRPRPMMGPRP
- shrunken log2 fold change: -0.01

Sequence: RRIRARPPRLPRPRPRPLHLPRP
- shrunken log2 fold change: 0.0337

Sequence: RRIRGRPPRLPRPRPRPSGVPRP
- shrunken log2 fold change: 0.633

Sequence: RRIRARPPRLPRPRPRPCIEPRP
- shrunken log2 fold change: 0.105
